Source: US20010039258A1, “Active agent transport systems” (Emisphere Technologies, Inc., priority 1990, published 2001)
Values belong to the molecule of their own block, whether it stands above or below them.

What was measured:
[1] = Solubility of perturbant under the DSC buffer conditions; type: physicochemical; conditions: room temperature; buffer conditions of the DSC (20 mM NaPhosphate pH 7.2)
Description: (§1) Perturbant binding DSC was conducted using 20 mM NaPhosphate buffer at pH 7.2. Dry perturbant was weighed out to make perturbant stock solutions. α-interferon stock was diluted in the buffer. α-interferon solution was not dialyzed prior to experiments for the purpose of having the same active concentration for the whole set.
DSC experiments were carried out according to the procedure of Example 19, with 0.5 mg/ml α-interferon mixed with (1) benzoyl para-amino phenylbutyric acid, (2) the perturbant of Example 22, or (3) the perturbant of Example 19.
Benzoyl para-amino phenylbutyric acid was poorly soluble under the buffer conditions. Maximum concentration at which the solution was still transparent at room temperature was ˜8 mg/mL. Therefore, the concentrations of the perturbant used were 2, 4, and 6 mg/mL. Results are illustrate in FIGS. 17 and 18. The dashed line in FIG. 17 represents the linear least squares, and the regression equation is at the top of FIG. 17.

[2] = target: T1, α-interferon (Homo sapiens, UniProt P01563); assay: Isothermal titration calorimetry of perturbant complexing with α-interferon; type: binding; conditions: pH 7; read-out: apparent dissociation constant
T1 construct: purchased Schering Plough Corp
T1 sequence (P01563 24-188): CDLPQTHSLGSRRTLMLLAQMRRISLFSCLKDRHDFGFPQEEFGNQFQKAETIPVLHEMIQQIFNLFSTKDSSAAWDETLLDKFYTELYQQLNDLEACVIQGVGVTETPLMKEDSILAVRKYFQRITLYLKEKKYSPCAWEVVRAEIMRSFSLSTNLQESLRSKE

[3] = target: T1, α-interferon; assay: as above; type: binding; conditions: pH 7.2, 25° C.
Description: Isothermal titration calorimetry of perturbant complexing with α-interferon was performed at 25° C. at two different pH's. The buffers used were 20 mM NaPhosphate for pH 7.2 and 20 mM NaAc for pH 3.0. α-interferon solution was dialyzed before the experiment to reach the appropriate pH. Dry perturbants were weighed and diluted in dialysate.
ITC was conducted on a MicroCal OMEGA titration calorimeter (MicroCal Inc.—Northampton, Mass.). Data points were collected every 2 seconds, without subsequent filtering. α-interferon solution placed in 1.3625 mL cell was titrated using a 250 μL syringe filled with concentrated perturbant solution. A certain amount of titrant was injected every 3-5 minutes for up to 55 injections.
A reference experiment to correct for the heat of mixing of two solutions, was performed identically except that the reaction cell was filled with buffer without active agent.
Analysis of the data was performed using the software developed at the Johns Hopkins University Biocalorimetry Center.
The titration at pH 7.2 included 53 injections of 2 μL of the perturbant of Example 30 (50 mg/mL=191.6 mM (MW 261)) and α-interferon (1.3 mg/mL=0.067 mM (MW 19400)).
The titration at pH 7.2 included two runs of […] each of 5 μL of perturbant (50 mg/mL=181 mM (FW 277)) and α-interferon (2.31 mg/mL=0.119 mM, (MW 19400)).
ITC was performed according to the method of Example 24 with 40 injections of 5 μL of the perturbant benzoyl para-amino phenylbutyric acid (7.5 mg/mL=24.59 mM, (FW 305)) and α-interferon (2.5 mg/mL=0.129 mM, (MW 19400)).

[4] = DSC of insulin, effect of ionic strength; type: physicochemical; conditions: pH 7.5
Description: (§2) Scanning calorimetry was performed using 5 mg 0.83 mM porcine insulin (MW 6,000) per mL in 50 mM phosphate buffer, pH 7.5. All thermograms were performed on a Microcal MC-2 scanning calorimeter equipped with the DA2 data acquisition system operated in the upscale mode at 1° C./min (up to 90° C.), and data points were collected at 20 second intervals. All scans were initiated at least 20 degrees below the observed transitions for the active agent. All thermograms were corrected for baseline subtraction and normalized for the concentration of macromolecule. According to the methods of the Johns Hopkins Biocalorimetry Center, See, for example, Ramsay et al. Biochemistry (1990) 29:8677-8693; Schon et al. Biochemistry (1989) 28:5019-5024 (1990) 29: 781-788.
A sample containing 6 mg/mL insulin (0.83 mM in 50 mM phosphate buffer, pH 7.5, containing 0.25, 0.5, or 1.0M NaCl) was used. Thermograms were performed according to the procedure in Example 9 and were corrected by subtraction of a 0.5M NaCl-phosphate buffer blank as described above.
The effect of increasing ionic strength on structure was assessed in DSC experiments where individual solutions were prepared so as to contain NaCl at concentrations ranging from 0.25-3M.

[5] = DSC of insulin with increasing guanidine hydrochloride; type: physicochemical
Description: DSC was performed with […] insulin (0.83 mM assuming a molecular weight of 6,000) in 50 mM phosphate buffer, pH 7.5. Each subsequent thermogram was corrected by background subtraction of a 0.6M guanidine-phosphate buffer solution.
Insulin was freshly prepared as a concentrated stock solution in 50 mM phosphate buffer, pH 7.5, and an appropriate aliquot was diluted in buffer, filtered though a 2 micron PTFE filter, and degassed for at least 20 minutes. The reference cell contained degassed buffer.
as §2, with “781-788. […]” for “781-788.”

[6] = target: salmon calcitonin (salmon) (UniProt P01263); assay: ITC, 30 C, pH 4.5; perturbant in syringe, sCt in cell
salmon calcitonin (salmon), sequence (P01263 83-114 limits assumed): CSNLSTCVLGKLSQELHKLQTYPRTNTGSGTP

[7] = target: salmon calcitonin (salmon) (UniProt P01263); assay: ITC, 30 C, pH 6.6 (text: pH 6.5, 30 mM Hepes-30 mM NaCl); perturbant in syringe, sCt in cell
[8] = target: salmon calcitonin (salmon) (UniProt P01263); assay: ITC, 30 C, pH 4.5 (30 mM sodium acetate-30 mM NaCl); perturbant in syringe, sCt in cell
[9] = target: salmon calcitonin (salmon) (UniProt P01263); assay: ITC, 30 C, pH 6.6 (text: pH 6.5); perturbant in syringe, sCt in cell
[10] = target: T1, α-interferon; assay: Perturbant binding DSC with α-interferon; conditions: perturbant 0 mg/ml; α-interferon 0.64 mg/ml; pH 7.2
Description: as §1
DSC thermograms were generated with α-interferon at a concentration of 0.64 mg/ml and a perturbant (phenylsulfonyl-para-aminobenzoic acid purified to >98% (as determined by reverse phase chromatography prior to generation of the spectra)) at perturbant concentrations of 5, 10, 25 and 100 mg/ml. DSC was conducted on a DASM-4 differential scanning calorimeter interfaced to an IBM PC for automatic collection of the data. The scanning rate was 60° C./h.
The method of Example 19 was followed substituting α-interferon without perturbant. Results are illustrated in Table 9 below and FIG. 10. […]

[11] = DSC of α-interferon, pH dependence; type: physicochemical
Description: as §2
α-interferon stock (9.1 mg/mL) was diluted with buffer to a concentration of 0.6 mg/mL. The sample was dialyzed overnight in buffer (volume ratio of α-interferon to buffer was 1:4000). Since there was no extinction coefficient provided, concentration of the sample used was determined by comparison of absorption spectra of the sample before and after dialysis. For each particular pH, the absorbance of the nondialyzed α-interferon of known concentration was measured at 280 nm. Then after dialysis, absorbance was read again to account for the protein loss, dilution, etc. Buffer conditions and α-interferon concentrations were:
pH 3.0: Buffer—20 mM NaAc. [IFN]=0.50 mg/mL;
pH 4.1: Buffer—20 mM NaAc. [IFN]=0.53 mg/mL;
pH 5.0: Buffer—20 mM NaAc. [IFN]=0.37 mg/mL;
pH 6.0: Buffer—20 mM Na Phosphate. [IFN]=0.37 mg/mL;
pH 7.2: Buffer—20 mM Na Phosphate. [IFN]=0.48 mg/mL.
DSC scans were performed according to the procedure of Example 9. Although clear, transparent solutions of α-interferon were obtained for every pH at room temperature, there were noticeable signs of precipitation at pH 5.0 and 6.0 after the temperature scans.

[12] = DSC of α-interferon in GuHCl; type: physicochemical
Description: GuHCl 5M stock solution was prepared using 20 mM sodium phosphate, pH 7.2 buffer. After dilution, the pH of the stock was checked and adjusted by concentrated HCl. To determine the concentration of final solution the refractive index referenced in Methods in Enzymology, Vol. 6, page 43 by Yasuhiko Nozaki was used.
α-interferon stock (9.1 mg/mL) was mixed with sufficient amounts of GuHCl to yield the concentrations of Table 1A below:
as §2
GuHCL/α-interferon samples were prepared according to the method of Example 4. DSC scans were performed according to the procedure of Example 9.

Maximum concentration at which the solution was still transparent [1]: ≥ 8 mg/mL | Kd [2]: 100 µM | log 10 Ka (1), Ka=association constant [3]: 3.343 | ΔH (1) [3]: 791.5726 cal/Mole perturbant | n (1), # of complexed perturbant molecules ([3]; curve fitting, multiple independent sites): 23.7
Molecule: O=C(O)CCCc1ccc(NC(=O)c2ccccc2)cc1 [benzoyl para-amino phenylbutyric acid]

Molecule: Insulin: porcine insulin (MW 6,000)
Tm (Cp, max) ([4]; 0.0 M NaCl): 78.3 °C | Tm (Cp, max) ([4]; 0.25 M NaCl): 80.7 °C | Tm (Cp, max) ([4]; 0.5 M NaCl): 80.7 °C | Tm (Cp, max) ([4]; 1.0 M NaCl): 80.7 °C | Tm (Cp, max) ([5]; 0.0 M GuHCl, 50 mM phosphate pH 7.5): 78.3 °C | Tm (Cp, max) ([5]; 0.5 M GuHCl, pH 7.5): 79.3 °C | Tm (Cp, max) ([5]; 1.0 M GuHCl, pH 7.5): 77.5 °C | Tm (Cp, max) ([5]; 2.0 M GuHCl, pH 7.5): 69.7 °C | Tm (Cp, max) ([5]; 3.0 M GuHCl, pH 7.5): no transition observed

N [6]: 0.8 | delta H [6]: 0.553 kcal/mol | delta S [6]: 19.8 cal/mol ° K | Kd [7]: 0.00699 µM | Kd [8]: 129 µM | N [9]: 11.6 | delta H [9]: 0.277 kcal/mol | delta S [9]: 38.3 cal/mol ° K
Molecule: thermal condensation product of glutamic acid, aspartic acid, tyrosine, and phenyl-alanine (Glu-Asp-Tye-Phe) fractionated through a 3000 molecular weight cut-off filter

Molecule: α-Interferon
Tm of α-interferon [10]: 67.12 °C | ΔH of α-interferon [10]: 72.562 kcal/mol | Tm ([11]; pH 4.1): 65.64 °C | ΔH ([11]; pH 4.1): 60.47 kcal/mol | Tm ([11]; pH 5.0): 67.32 °C | ΔH ([11]; pH 5.0): 69.782 kcal/mol | Tm ([11]; pH 6.0): 65.34 °C | ΔH ([11]; pH 6.0): 45.58 kcal/mol | Tm ([11]; pH 7.2): 66.84 °C | ΔH ([11]; pH 7.2): 732.717 kcal/mol | Tm ([12]; [GuHCl] 0.0 M): 67.12 °C | ΔH ([12]; [GuHCl] 0.0 M): 72.562 kcal/mol | Tm ([12]; [GuHCl] 0.5 M): 64.43 °C | ΔH ([12]; [GuHCl] 0.5 M): 50.827 kcal/mol | Tm ([12]; [GuHCl] 1.0 M): 63.04 °C | ΔH ([12]; [GuHCl] 1.0 M): 41.705 kcal/mol | Tm ([12]; [GuHCl] 1.5 M): 60.11 °C | ΔH ([12]; [GuHCl] 1.5 M): 29.52 kcal/mol | Tm ([12]; [GuHCl] 2.0 M): 56.32 °C | ΔH ([12]; [GuHCl] 2.0 M): 24.98 kcal/mol | Tm ([12]; [GuHCl] 3.0 M): 45.90 °C | ΔH ([12]; [GuHCl] 3.0 M): 20.577 kcal/mol
